For experiment [1], the system named is FoxP3 induction in OT-I CD8 T-cells by osteoclasts. Description: TcREG (FoxP3) induction in OT-I CD8 T-cells co-cultured with bone marrow-derived osteoclasts. Format: cell-based, mice. Particulars: in culture, IL-17 10 ng/ml, increasing TNFα, DAPT 10 μM, Fc proteins added to T-cells prior to co-culture. The method, then:
It was also determined that IL-17 and TNFα suppresses TcREG induction by osteoclasts. […] Another possibility is that loss of estrogen leads to increased production of the pro-inflammatory cytokines by T-cells that increase osteoclast activity. Without being limited to any method of operation, it is actually expected that in the presence of pro-inflammatory cytokines osteoclasts fail to induce TcREG. As estrogen depletion lead to greater number of osteoclasts because of a decreased Fas ligand expression, the loss of TcREG induction and increased osteoclast numbers would tip the balance towards increased osteoclast resorption and net bone loss. To test fir this possibility, OC-iTcREG induction was measured in the presence of IL-17 and TNFα. […] To understand the underlying mechanism of how TNFα affects osteoclasts' ability to induce TcREG, the signals provided by osteoclasts to induce FoxP3 in the CD8 T-cells were investigated along with if these signals were affected by […].
(§1) The most common and well-studied costimulatory signals on antigen-presenting cells are CD80 (B7.1) and CD86 (B7.2). As CD80/CD86 double knockout mice are commercially available, osteoclasts were generated from bone marrow precursors of these mice. The CD80/CD86 null osteoclasts (as well as wild-type controls) were then used to prime OT-I T-cells in the presence and absence of antigen. […] OT-I CD8 T-cells activated by CD80/CD86 null osteoclasts produced IL-6, IL-2 and IFN-γ to levels indistinguishable from wild-type mice (FIG. 4B). Having ruled out CD80/CD86 as the costimulatory molecules, an osteoclast microarray dataset was queried for other costimulatory molecules expressed by osteoclasts. Osteoclasts that express CD200 and c-Mer were found. The role of CD200 was chosen for testing based on the phenotype of CD200^−/− mice and the reported role for CD200 in regulating TcREG.
The most, well characterized regulator of FoxP3 in T-cells is TGFβ. It has been previously shown that neutralization or addition of TGFβ has no effect on the induction of TcREG. Therefore identification of other pathways that can regulate the FoxP3 promoter in T-cells was sought. A number of previous studies have identified that the Notch signaling contributes to FoxP3 induction. To test if Notch signaling is important for TcREG induction by osteoclasts, the γ-Secretase inhibitor DAPT was initially used. Ligation of the Notch receptor by its ligand leads to cleavage of Notch by γ-secretase. […] Next, we identified the Notch ligands expressed in osteoclasts using reverse-transcription followed by PCR. […] Of the four, the osteoclast-precursors (bone marrow cells treated with M-CSF but not RANKL) express all of the ligands except DLL4 (FIG. 5C). To assess the role of DLL4 in TcREG (soluble) DLL4-Fc was added to OT-I CD8 T-cells prior to co-culturing with osteoclasts. […] To assess the role of DLL4 in vivo the induction experiments as described in FIG. 1 were performed: GFP negative (polyclonal) CD8 T-cells were purified by cell sorting and transferred into OT-II Rag^−/− mice. Two hours prior to RANKL treatment, DLL4-Fc or a control IgG1-Fc, were injected intravenously into the recipient mice, As described for FIG. 1, RANKL (0.125 mg/kg) was then administered on two consecutive days.
DLL-4 expression is repressed in the presence of […] and IL-17 but can be de-repressed by RANKL. […]

The test system of a further experiment is DLL4. Description: DLL4 expression in mature osteoclasts by qRT-PCR. It counts as cell-based, mouse. To be noted: overnight in 20 ng/ml TNFα or 10 ng/ml IL-17. An excerpt: DLL-4 expression is repressed in the presence of […] and IL-17 but can be de-repressed by RANKL. Having identified that DLL4 was required for osteoclasts to induce Foxp3 expression in CD8+ T cells we next tested if DLL-4 expression was affected by pro-inflammatory cytokines. […] As RANKL induced DLL4 in osteoclast precursors, it was hypothesized that adding additional RANKL may overcome the repression of DLL4 by TNFα. To assess the reversibility of DLL4 expression, mature osteoclasts were cultured overnight in 50 ng/ml RANKL and 20 ng/ml […], and then additional RANKL was added to the culture media (while maintaining 20 ng/ml TNFα) as shown in FIG. 5E. Indeed, addition of RANKL overcomes (within 24 hours) the repression of DLL4 by TNFα as assessed by qRT-PCR. […] The experiment was performed as above, but in this case FoxP3 induction in OT-I CD8 T-cells in the presence of OVA and either 10 ng/ml or 20 ng/ml TNFα was measured.
(§2) Osteoclasts seeded on day 4 at 1.5×10^6 cells/ml were used in all experiments. RNA was isolated at time point described in Figure legends. 10 to 50 ng of RNA was used for first-strand cDNA synthesis in 50 μL reaction per kit instructions (Superscript III cDNA synthesis system; Invitrogen). In all cases 10% of the cDNA product was used in a 50 μL PCR reaction that contained 10 μM each forward and reverse primers. For quantitative PCR (qPCR) SYBR green system (Invitrogen) was used. Otherwise, cDNA was amplified (25 cycles) and the products resolved on 1.2% agarose gel and visualized by ethidium bromide staining.
On the technique in general: In qPCR the cycle at which signal appears reflects the starting amount.

Another experiment deals with CD200. Description: CD200 expression in mature osteoclasts by qRT-PCR. Format: cell-based, mouse. To be noted: TNFα 20 ng/ml or IL-17A 10 ng/ml.
From the text: as §1, §2

Entries after “also recorded” stand apart in the source; their conditions may differ.

As for `C[C@H](NC(=O)Cc1cc(F)cc(F)c1)C(=O)N[C@H](C(=O)OC(C)(C)C)c1ccccc1` [DAPT, reference compound], in experiment [1], the “effect of added agent on TcREG/FoxP3 induction by osteoclasts” value is “completely inhibited TcREG induction; also recorded: completely abrogated FoxP3 induction”.

With TNFα [reference compound], the “DLL4 transcripts in mature osteoclasts after cytokine” value in the experiment on DLL4 is listed as “DLL4 expression was repressed; also recorded: significantly reduced”. For the same molecule, the “effect of added agent on TcREG/FoxP3 induction by osteoclasts” value in experiment [1] is “reduced TcREG induction in a dose dependent manner; also recorded: greatly impaired”. For the same molecule, the “CD200 mRNA expression in mature osteoclasts” value in the experiment on CD200 is listed as “had no effect on CD200 expression; also recorded: not altered”.

B1: IL-17A: recombinant murine IL-17A, pro-inflammatory cytokine (protein, UniProt Q62386 26-158, looked up)
Interleukin-17A: AAIIPQSSACPNTEAKDFLQNVKVNLKVFNSLGAKVSSRRPSDYLNRSTSPWTLHRNEDPDRYPSVIWEAQCRHQRCVNAEGKLDHHMNSVLIQQEILVLKREPESCPFTFRVEKMLVGVGCTCVASIVRQAA
In the case of B1, the “DLL4 transcripts in mature osteoclasts after cytokine” value in the experiment with DLL4 is “DLL4 expression was repressed”; in the experiment with DLL4 (listed as IL-17), “significantly reduced”. The “effect of added agent on TcREG/FoxP3 induction by osteoclasts” value in experiment [1] is on record as “significantly reduced”; in experiment [1] (listed as IL-17), “greatly impaired”. The “CD200 mRNA expression in mature osteoclasts” value in the experiment on CD200 is “had no effect on CD200 expression”; with CD200 (listed as IL-17), “not altered”.

For the origin of these results see patent US10745461B2, “Pulsed introduction of low-dose RANKL as a therapy for diet-induced atherosclerosis” (Saint Louis University, priority 2015, dated 2020).
